Source: patent US20230049152A1 (Genentech, published 2023)
Residue numbers refer to the chain shown, from its start. One block for each binder: values may come before it.

Assays:
human CCR5 [1] = target: T1, human CCR5 (human, UniProt P51681 1-352); experiment: flow cytometry, HEK293 with N-term FLAG-tagged human CCR5
T1 construct: whole, on cells; transiently expressed on HEK293 cells
Description: FIGS. 4A-4F depicts the binding data of hu.Ab3.H1L1 (FIG. 4A), hu.Ab4.H1L1 (FIG. 4B), and hu.Ab5.H1L1 (FIG. 4C), as well as the commercial anti-CCR8 mAbs murine anti-human CCR8 mAb 433H (BD Biosciences) (FIG. 4D), and murine anti-human CCR8 mAb L263G8 (Biolegend) (FIG. 4E), and the humanized anti-human Yoshida anti-CCR8 mAb (FIG. 4F), to HEK293 cells that were transiently transfected with N-term FLAG-tagged plasmids encoding for human GPCRs (CCR2, CCR3, CCR4, CCR5, CCR8, CXCR4, ACKR2, and ACKR4), hCCR8 constructs, or with a mock construct using transIT X2 (reagent:DNA=3:1).
To confirm the selectivity to CCR8, the binding of hu.Ab3.H1L1, hu.Ab4.H1L1, and hu.Ab5.H1L1, as well as the Yoshida humanized anti-human CCR8, murine anti-human CCR8 mAb L263G8 (Biolegend, Commercial Ab) and murine anti-human CCR8 mAb 433H (BD Biosciences, Commercial Ab), were characterized by flow cytometry on HEK293 cells that were transiently transfected with plasmids encoding for FLAG-tagged other related human GPCRs (CCR2-5, CXCR4, ACKR2, and ACKR4). Cell surface expression of each GPCR was confirmed by staining with an anti-FLAG antibody control. […]

human CCR8 [2] = target: T2, human CCR8 (human, UniProt P51685 1-355); experiment: flow cytometry, 2 ug/mL mAb, Treg cells of human colorectal dissociated tumor cells
T2 construct: the assay field says which; also called hCCR8; huCCR8
Description: The mAbs were evaluated for binding to regulatory T cells (Treg cells or Tregs) by Fluorescence-Activated Cell Sorting (FACS) flow cytometry. Human colorectal dissociated tumor cells (DTC) (Discovery Life Sciences) were thawed according to vendor's protocol. Cells were surface stained with eFluor 780-conjugated Fixable Viability Dye (ThermoFisher Scientific) and 2 ug/mL mAb specific for CCR8, OX40 (positive control), Herceptin (negative control), or anti-hIgG (negative control) for 20 min at 4° C. followed by secondary detection with AF647-conjugated AffiniPure F(ab′)2 Fragment Goat anti-Human IgG, Fcg fragment-specific (Jackson ImmunoResearch) for 10 min at 4° C. Cells were then intracellularly stained using the eBioscience Foxp3/Transcription Factor Staining Buffer Set (ThermoFisher Scientific) according to the manufacturer's protocol. […] Shown in FIG. 1 are mean fluorescent intensity (MFI) values for CD8 T cells (defined as CD45+CD14−CD3+CD8+CD4−) (circles, ◯), conventional CD4 T cells (defined as CD45+CD14−CD3+CD8−CD4+FOXP3−) (squares, □), and Treg cells (defined as CD45+CD14−CD3+CD8−CD4+FOXP3+) (triangles, ▴). Three of the five CCR8 mAb clones specifically stained Treg cells and not conventional CD4 or CD8 T cells and were ranked according to CCR8 MFI, greater than 500 MFI: hu.Ab4.H1L1>hu.Ab5.H1L1>hu.Ab3.H1L1. Upon confirmation that these three CCR8 mAb clones, namely, hu.Ab3.H1L1, hu.Ab4.H1L1, and hu.Ab5.H1L1, also retained human-cyno cross-reactivity (differences less than 5-fold on human and cyno CCR8 CHO cells), these antibodies carried forward for further exploration.

human CCR8 [3] = target: T2, human CCR8; experiment: cell-based or functional assay
human CCR5 [4] = target: T1, human CCR5; experiment: flow cytometry, HEK293 with N-term FLAG-tagged human CCR5, procedure of FIG. 4
Description: To confirm the selectivity to CCR8, the binding of hu.Ab3.H1L1, hu.Ab4.H1L1, and hu.Ab5.H1L1, as well as the Yoshida humanized anti-human CCR8, murine anti-human CCR8 mAb L263G8 (Biolegend, Commercial Ab) and murine anti-human CCR8 mAb 433H (BD Biosciences, Commercial Ab), were characterized by flow cytometry on HEK293 cells that were transiently transfected with plasmids encoding for FLAG-tagged other related human GPCRs (CCR2-5, CXCR4, ACKR2, and ACKR4). Cell surface expression of each GPCR was confirmed by staining with an anti-FLAG antibody control. In particular, HEK293 cells were transfected with N-term FLAG-tagged human CCR2, CCR3, CCR4, CCR5, CXCR4, ACKR2, ACKR4, hCCR8 constructs, or with a Mock construct using transIT X2 (reagent:DNA=3:1) for 24 hours, and surface stained with various anti-hCCR8 monoclonal antibodies at 5 ug/ml, or rabbit anti-Flag pAb (Sigma) followed by AF647-anti-hIgG or AF647-anti-RbIgG respectively. Antibodies hu.Ab4.H1L1, and hu.Ab5.H1L1, only stained the hCCR8-containing cells, confirming their specificity to hCCR8. […] Thus, the CCR8 selective hu.Ab4.H1L1 and hu.Ab5.H1L1 antibodies with the best ADCC activities were carried forward.
To reconfirm that the Ab4 and Ab5 variants remained selective to CCR8 compared to the corresponding HIL1 variants, binding was analyzed by flow cytometry following the procedure as described for FIG. 4A and FIG. 4B. […]

cyno CCR8 = target: T3, cyno CCR8 (cynomolgus monkey, UniProt O97665 1-356 (rhesus entry)); experiment: radioligand competition, 125I-labelled IgG versus unlabelled IgG on CHO cells stably expressing cyno CCR8
T3 construct: also called cynomolgus monkey CCR8
T3 sequence (O97665 other isoform, or with tags, fused parts or gaps): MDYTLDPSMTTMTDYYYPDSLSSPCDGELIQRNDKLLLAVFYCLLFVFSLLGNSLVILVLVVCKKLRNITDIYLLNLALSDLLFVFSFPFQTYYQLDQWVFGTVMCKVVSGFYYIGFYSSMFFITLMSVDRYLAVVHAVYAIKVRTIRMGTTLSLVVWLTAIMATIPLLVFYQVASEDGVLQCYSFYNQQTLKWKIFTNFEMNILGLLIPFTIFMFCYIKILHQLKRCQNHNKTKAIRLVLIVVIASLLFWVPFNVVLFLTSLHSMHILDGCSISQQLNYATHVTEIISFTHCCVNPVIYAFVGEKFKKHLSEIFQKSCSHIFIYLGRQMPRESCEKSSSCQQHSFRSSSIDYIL
Description: (§1) Cell-based affinity measurements were performed using radiolabeled IgGs and CHO cell lines stably expressing human or cyno CCR8 for hu.Ab5.H13L1 and hu.Ab4.H12L3.
(§2) Briefly, stable CHO cells expressing human or cyno CCR8 were seeded in cold binding buffer (Opti-MEM+2% FBS+50 mM HEPES, pH 7.2+0.1% Sodium Azide) at 50,000 cells per well. A fixed concentration of ¹²⁵I-anti-CCR8 radiolabeled using the NEX244 Iodogen method (Perkin Elmer) was mixed with serially diluted anti-CCR8 antibodies starting at 20 nM or 50 nM. The antibody mixture was added to the cells and incubated at room temperature for 12 hours under gentle agitation. The cells and antibodies were then transferred to Millipore multiscreen filter plates. The filter plates were washed 4 times with 250 μL of cold binding buffer and dried for at least 30 minutes and the filters were punched into 5 mL polystyrene tubes. The radioactivity was measured using a Perkin Elmer Wallac Wizard 2470 Gamma Counter set at 1 count per minute with 0.8 counting efficiency. The data were fitted using the heterologous one site-fit Ki competitive binding model in GraphPad Prism.

human CCR8 [5] = target: T2, human CCR8; experiment: radioligand competition, 125I-labelled IgG versus unlabelled IgG on CHO cells stably expressing human CCR8
Description: as §1, §2

T1 sequence (P51681 whole entry): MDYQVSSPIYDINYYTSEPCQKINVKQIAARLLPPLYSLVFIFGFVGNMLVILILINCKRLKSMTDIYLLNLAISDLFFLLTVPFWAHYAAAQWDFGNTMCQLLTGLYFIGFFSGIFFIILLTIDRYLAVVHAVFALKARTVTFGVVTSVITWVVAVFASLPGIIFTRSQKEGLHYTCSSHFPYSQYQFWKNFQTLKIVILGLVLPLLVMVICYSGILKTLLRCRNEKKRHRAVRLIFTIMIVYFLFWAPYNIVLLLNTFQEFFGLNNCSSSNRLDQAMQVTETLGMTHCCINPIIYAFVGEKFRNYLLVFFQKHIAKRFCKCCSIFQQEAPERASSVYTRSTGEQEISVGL

B1: hu.Ab5.H1L1 (antibody, human IgG1, kappa)
heavy: not shown
light: DIQVTQSPSSLSASVGDRVTITCQASENIANALAWYQQKPGKPPKFLIYGASNLASGVPSRFSGSGSGTDFTFTISSLQPEDIATYYCQQAYYGNSFVEGTFGGGTKVEIKRTVAAPSVFIFPPSDEQLKSGTASVVCLLNNFYPREAKVQWKVDNALQSGNSQESVTEQDSKDSTYSLSSTLTLSKADYEKHKVYACEVTHQGLSSPVTKSFNRGEC
binding result (human CCR5 [1]): no binding (tested: 5 ug/ml)
MFI (human CCR8 [2]): > 500 MFI
ADCC EC50, NK-92_F158 effector cells, calcein release (human CCR8 [3]): 0.02 nM

B3: hu.Ab4.H1L1 (antibody, human IgG1, kappa)
heavy: not shown
light: DYQMTQSPSSLSASVGDRVTITCQASQSISSYLSWYQQKPGKRPKLLIYKASTLASGVPSRFSGSGSGTDFTLTISSLQPEDFATYYCQQGYTSSNIDNIFGGGTKVEIKRTVAAPSVFIFPPSDEQLKSGTASVVCLLNNFYPREAKVQWKVDNALQSGNSQESVTEQDSKDSTYSLSSTLTLSKADYEKHKVYACEVTHQGLSSPVTKSFNRGEC
notes: also called hu.Ab4.H1Ll
binding result (human CCR5 [1]): no binding (tested: 5 ug/ml)
MFI (human CCR8 [2]): > 500 MFI
ADCC EC50, NK-92_F158 effector cells, calcein release (human CCR8 [3]): 0.08 nM

Second part, the binder after the results:

binding result (human CCR5 [4]): no binding (tested: 5 ug/ml)
Kd (cyno CCR8): 0.0034 nM
Kd (human CCR8 [5]): 0.004 nM
B2: hu.Ab5.H13L1 (antibody, human IgG1, kappa)
heavy: not shown
light: B1 light
notes: fucosylated human IgG1; also called Ab5 variant

binding result (human CCR5 [4]): no binding (tested: 5 ug/ml)
Kd (cyno CCR8): 0.0243 nM
Kd (human CCR8 [5]): 0.0284 nM
B4: hu.Ab4.H12L3 (antibody, human IgG1, kappa)
heavy: not shown
light: B3 light with R43A
notes: fucosylated human IgG1; also called huCCR8-Ab4.H12L3.hIgG1; Ab4 variant
